According to patent US20250388664A1 (BIOARCTIC, published 2025):

T1: truncated cTfR1 of SEQ ID NO:123 (cynomolgus monkey, UniProt Q5RDH6 122-760 (Pongo abelii entry))
T1 construct: also called cynomolgus TfR1
T1 chain: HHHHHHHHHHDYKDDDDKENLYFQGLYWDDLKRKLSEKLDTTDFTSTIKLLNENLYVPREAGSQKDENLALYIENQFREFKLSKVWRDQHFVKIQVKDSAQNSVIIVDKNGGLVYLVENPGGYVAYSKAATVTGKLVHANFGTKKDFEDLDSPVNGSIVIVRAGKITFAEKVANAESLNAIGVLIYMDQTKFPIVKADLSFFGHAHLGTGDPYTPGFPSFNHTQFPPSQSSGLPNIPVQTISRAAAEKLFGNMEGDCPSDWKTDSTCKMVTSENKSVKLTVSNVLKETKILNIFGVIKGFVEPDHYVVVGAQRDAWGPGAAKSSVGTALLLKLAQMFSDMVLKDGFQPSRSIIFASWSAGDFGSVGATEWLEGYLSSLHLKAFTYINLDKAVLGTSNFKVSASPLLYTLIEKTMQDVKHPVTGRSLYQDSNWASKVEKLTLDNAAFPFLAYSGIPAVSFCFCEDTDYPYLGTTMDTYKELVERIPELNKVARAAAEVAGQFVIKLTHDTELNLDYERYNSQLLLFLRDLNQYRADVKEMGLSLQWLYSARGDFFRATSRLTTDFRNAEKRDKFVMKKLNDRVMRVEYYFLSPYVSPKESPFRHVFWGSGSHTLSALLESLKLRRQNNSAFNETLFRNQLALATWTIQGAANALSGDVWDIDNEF


Experiments:
[1] = molecular target: T1, truncated cTfR1 of SEQ ID NO:123; assay: SPR, FLAG-captured TfR1, scFv injected, 1:1 fit
Experimental: (§1) The interaction was measured using the single cycle kinetics method with a contact time of 120 s at a flow rate of 30 μl/min followed by a dissociation time of 600 s. Regeneration of the surface between cycles was done by injecting 10 mM glycine-HCl, pH 1.7. The binding data was fitted to a 1:1 interaction model. The scFv variants were diluted in HBS-EP+ (Cytiva. #BR100669). Experiments were performed at 25° C.

[2] = molecular target: T2, truncated hTfR1 of SEQ ID NO:122 (human, UniProt P02786 122-760); assay: SPR, FLAG-captured TfR1, scFv injected, 1:1 fit
T2 construct: also called human TfR1; Human TfR1
Experimental: as §1

[3] = molecular target: T2, truncated hTfR1 of SEQ ID NO:122; assay: SPR follow-up, 4 replicates, FLAG-captured hTfR1, scFv injected
Experimental: as §1
The selected molecules were produced as described above.

T2 sequence (P02786 other isoform, or with tags, fused parts or gaps limits assumed): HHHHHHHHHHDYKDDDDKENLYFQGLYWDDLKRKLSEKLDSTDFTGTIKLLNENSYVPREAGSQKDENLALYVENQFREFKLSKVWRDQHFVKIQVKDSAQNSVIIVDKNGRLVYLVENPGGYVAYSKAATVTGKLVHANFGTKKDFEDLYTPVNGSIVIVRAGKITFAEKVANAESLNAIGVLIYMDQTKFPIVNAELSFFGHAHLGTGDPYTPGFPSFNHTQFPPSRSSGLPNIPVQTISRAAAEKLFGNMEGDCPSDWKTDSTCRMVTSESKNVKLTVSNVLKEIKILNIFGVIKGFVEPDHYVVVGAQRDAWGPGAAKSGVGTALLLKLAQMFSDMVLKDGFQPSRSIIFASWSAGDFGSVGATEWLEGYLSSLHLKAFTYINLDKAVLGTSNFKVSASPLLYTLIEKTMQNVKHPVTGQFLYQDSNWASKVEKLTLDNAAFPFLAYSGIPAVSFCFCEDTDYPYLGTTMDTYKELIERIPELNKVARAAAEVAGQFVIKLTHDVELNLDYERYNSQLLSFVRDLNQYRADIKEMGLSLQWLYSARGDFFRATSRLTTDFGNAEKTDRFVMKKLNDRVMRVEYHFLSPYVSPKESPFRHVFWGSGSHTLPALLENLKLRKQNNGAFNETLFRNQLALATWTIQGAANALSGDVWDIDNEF

Binder	Kd [1] [nM]	koff [1] [s⁻¹]	kon [1] [M⁻¹ s⁻¹]	Kd [2] [nM]	koff [2] [s⁻¹]	kon [2] [M⁻¹ s⁻¹]	Kd [3] [nM]	koff [3] [s⁻¹]	kon [3] [M⁻¹ s⁻¹]
h26D3 HC6 DS T91A (scFv, also called h26D3 DS T91A) scFv: HHHHHHGGGGSGGGGSGGGGSGGGGSDIQMTQSPSSVSASVGDRVTITCKSSQSLLYSTNQKNYLAWYQQKPGKAPKLLIYWASTRESGVPSRFSGSGSGTDFTLTISSLQPEDFATYYCQQYFIYPRTFGCGTKVEIKGGGGSGGGGSGGGGSGGGGSEVQLVQSGAEVKKPGSSVKVSCKASGYIFTDYNMDWVRQAPGQCLEWIGDINPDADTTSYNEKFKGRATLTVDKSTSTAYMELSSLRSEDAAVYYCARGGYSGSSYYHPMDYWGQGTLVTVSS	240	0.0111	46200	59.7	0.00388	65000	–	–	–
h26D3 HC6 DS L118S (scFv, also called h26D3 DS L118S) scFv: HHHHHHGGGGSGGGGSGGGGSGGGGSDIQMTQSPSSVSASVGDRVTITCKSSQSLLYSTNQKNYLAWYQQKPGKAPKLLIYWASTRESGVPSRFSGSGSGTDFTLTISSLQPEDFATYYCQQYFIYPRTFGCGTKVEIKGGGGSGGGGSGGGGSGGGGSEVQLVQSGAEVKKPGSSVKVSCKASGYIFTDYNMDWVRQAPGQCLEWIGDINPDADTTSYNEKFKGRATLTVDKSTSTAYMELSSLRSEDTAVYYCARGGYSGSSYYHPMDYWGQGTSVTVSS	243	0.0107	44000	60	0.00393	66200	–	–	–
h26D3 HC6 DS S16E (scFv, also called h26D3 DS S16E) scFv: HHHHHHGGGGSGGGGSGGGGSGGGGSDIQMTQSPSSVSASVGDRVTITCKSSQSLLYSTNQKNYLAWYQQKPGKAPKLLIYWASTRESGVPSRFSGSGSGTDFTLTISSLQPEDFATYYCQQYFIYPRTFGCGTKVEIKGGGGSGGGGSGGGGSGGGGSEVQLVQSGAEVKKPGESVKVSCKASGYIFTDYNMDWVRQAPGQCLEWIGDINPDADTTSYNEKFKGRATLTVDKSTSTAYMELSSLRSEDTAVYYCARGGYSGSSYYHPMDYWGQGTLVTVSS	277	0.0121	43800	68.9	0.00397	57700	–	–	–
h26D3 HC6 DS V11R (scFv, also called h26D3 DS V11R) scFv: HHHHHHGGGGSGGGGSGGGGSGGGGSDIQMTQSPSSVSASVGDRVTITCKSSQSLLYSTNQKNYLAWYQQKPGKAPKLLIYWASTRESGVPSRFSGSGSGTDFTLTISSLQPEDFATYYCQQYFIYPRTFGCGTKVEIKGGGGSGGGGSGGGGSGGGGSEVQLVQSGAERKKPGSSVKVSCKASGYIFTDYNMDWVRQAPGQCLEWIGDINPDADTTSYNEKFKGRATLTVDKSTSTAYMELSSLRSEDTAVYYCARGGYSGSSYYHPMDYWGQGTLVTVSS	222	0.0113	51500	54	0.00465	90400	–	–	–
h26D3 HC6 DS V11R T91A (scFv, also called h26D3 DS V11R T91A) scFv: HHHHHHGGGGSGGGGSGGGGSGGGGSDIQMTQSPSSVSASVGDRVTITCKSSQSLLYSTNQKNYLAWYQQKPGKAPKLLIYWASTRESGVPSRFSGSGSGTDFTLTISSLQPEDFATYYCQQYFIYPRTFGCGTKVEIKGGGGSGGGGSGGGGSGGGGSEVQLVQSGAERKKPGSSVKVSCKASGYIFTDYNMDWVRQAPGQCLEWIGDINPDADTTSYNEKFKGRATLTVDKSTSTAYMELSSLRSEDAAVYYCARGGYSGSSYYHPMDYWGQGTLVTVSS	206	0.012	58100	61.3	0.00458	76100	58.7	0.00419	74900
h26D3 HC6 DS S16E L118S (scFv, also called h26D3 DS S16E L118S) scFv: HHHHHHGGGGSGGGGSGGGGSGGGGSDIQMTQSPSSVSASVGDRVTITCKSSQSLLYSTNQKNYLAWYQQKPGKAPKLLIYWASTRESGVPSRFSGSGSGTDFTLTISSLQPEDFATYYCQQYFIYPRTFGCGTKVEIKGGGGSGGGGSGGGGSGGGGSEVQLVQSGAEVKKPGESVKVSCKASGYIFTDYNMDWVRQAPGQCLEWIGDINPDADTTSYNEKFKGRATLTVDKSTSTAYMELSSLRSEDTAVYYCARGGYSGSSYYHPMDYWGQGTSVTVSS	261	0.0109	41700	67.1	0.00387	57800	–	–	–
h26D3 HC6 DS T91S S122K (scFv, also called h26D3 DS T91S S122K) scFv: HHHHHHGGGGSGGGGSGGGGSGGGGSDIQMTQSPSSVSASVGDRVTITCKSSQSLLYSTNQKNYLAWYQQKPGKAPKLLIYWASTRESGVPSRFSGSGSGTDFTLTISSLQPEDFATYYCQQYFIYPRTFGCGTKVEIKGGGGSGGGGSGGGGSGGGGSEVQLVQSGAEVKKPGSSVKVSCKASGYIFTDYNMDWVRQAPGQCLEWIGDINPDADTTSYNEKFKGRATLTVDKSTSTAYMELSSLRSEDSAVYYCARGGYSGSSYYHPMDYWGQGTLVTVKS	221	0.0108	48600	50.5	0.0038	76200	69.5	0.00463	67000
h26D3 HC6 DS T91S T120K (scFv, also called h26D3 DS T91S T120K) scFv: HHHHHHGGGGSGGGGSGGGGSGGGGSDIQMTQSPSSVSASVGDRVTITCKSSQSLLYSTNQKNYLAWYQQKPGKAPKLLIYWASTRESGVPSRFSGSGSGTDFTLTISSLQPEDFATYYCQQYFIYPRTFGCGTKVEIKGGGGSGGGGSGGGGSGGGGSEVQLVQSGAEVKKPGSSVKVSCKASGYIFTDYNMDWVRQAPGQCLEWIGDINPDADTTSYNEKFKGRATLTVDKSTSTAYMELSSLRSEDSAVYYCARGGYSGSSYYHPMDYWGQGTLVKVSS	245	0.0115	46700	66.2	0.00409	61900	55.5	0.00465	87200
h26D3 HC6 DS V11R T120K (scFv, also called h26D3 DS V11R T120K) scFv: HHHHHHGGGGSGGGGSGGGGSGGGGSDIQMTQSPSSVSASVGDRVTITCKSSQSLLYSTNQKNYLAWYQQKPGKAPKLLIYWASTRESGVPSRFSGSGSGTDFTLTISSLQPEDFATYYCQQYFIYPRTFGCGTKVEIKGGGGSGGGGSGGGGSGGGGSEVQLVQSGAERKKPGSSVKVSCKASGYIFTDYNMDWVRQAPGQCLEWIGDINPDADTTSYNEKFKGRATLTVDKSTSTAYMELSSLRSEDTAVYYCARGGYSGSSYYHPMDYWGQGTLVKVSS	201	0.0124	61300	60.2	0.00441	73300	48.6	0.00449	95700
h26D3 HC6 DS S122K (scFv, also called h26D3 DS S122K) scFv: HHHHHHGGGGSGGGGSGGGGSGGGGSDIQMTQSPSSVSASVGDRVTITCKSSQSLLYSTNQKNYLAWYQQKPGKAPKLLIYWASTRESGVPSRFSGSGSGTDFTLTISSLQPEDFATYYCQQYFIYPRTFGCGTKVEIKGGGGSGGGGSGGGGSGGGGSEVQLVQSGAEVKKPGSSVKVSCKASGYIFTDYNMDWVRQAPGQCLEWIGDINPDADTTSYNEKFKGRATLTVDKSTSTAYMELSSLRSEDTAVYYCARGGYSGSSYYHPMDYWGQGTLVTVKS	170	0.0103	61500	53.7	0.00407	76400	62.6	0.00482	85800
h26D3 HC6 DS T120K (scFv, also called h26D3 DS T120K) scFv: HHHHHHGGGGSGGGGSGGGGSGGGGSDIQMTQSPSSVSASVGDRVTITCKSSQSLLYSTNQKNYLAWYQQKPGKAPKLLIYWASTRESGVPSRFSGSGSGTDFTLTISSLQPEDFATYYCQQYFIYPRTFGCGTKVEIKGGGGSGGGGSGGGGSGGGGSEVQLVQSGAEVKKPGSSVKVSCKASGYIFTDYNMDWVRQAPGQCLEWIGDINPDADTTSYNEKFKGRATLTVDKSTSTAYMELSSLRSEDTAVYYCARGGYSGSSYYHPMDYWGQGTLVKVSS	197	0.0113	57400	59.3	0.00429	75100	71.3	0.00478	67300
h26D3-HC6_DS, VL-first (scFv) scFv: DIQMTQSPSSVSASVGDRVTITCKSSQSLLYSTNQKNYLAWYQQKPGKAPKLLIYWASTRESGVPSRFSGSGSGTDFTLTISSLQPEDFATYYCQQYFIYPRTFGCGTKVEIKGGGGSGGGGSGGGGSGGGGSEVQLVQSGAEVKKPGSSVKVSCKASGYIFTDYNMDWVRQAPGQCLEWIGDINPDADTTSYNEKFKGRATLTVDKSTSTAYMELSSLRSEDTAVYYCARGGYSGSSYYHPMDYWGQGTLVTVSS	246	0.0114	47600	68.9	0.00434	63500	66.2	0.00439	67100
